The text below walks through data of paper doi:10.1101/2020.12.24.423824 (bioRxiv, 2020).

In this assay the target is RlucII-Rab7A (UniProt P51149 1-207). Put plainly: FRET or BRET. For orientation: Bioluminescence resonance energy transfer reports proximity on the nanometre scale.
RlucII-Rab7A, sequence (P51149 whole entry): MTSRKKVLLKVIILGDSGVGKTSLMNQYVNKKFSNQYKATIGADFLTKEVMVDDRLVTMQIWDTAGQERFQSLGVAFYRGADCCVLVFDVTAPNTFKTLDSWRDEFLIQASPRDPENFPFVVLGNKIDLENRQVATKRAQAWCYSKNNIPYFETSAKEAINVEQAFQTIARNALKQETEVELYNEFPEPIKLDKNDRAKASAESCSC

B1: RILP-GFP10 (natural protein, UniProt Q96NA2 1-401, looked up)
chain: MEPRRAAPGVPGWGSREAAGSASAAELVYHLAGALGTELQDLARRFGPEAAAGLVPLVVRALELLEQAAVGPAPDSLQVSAQPAEQELRRLREENERLRRELRAGPQEERALLRQLKEVTDRQRDELRAHNRDLRQRGQETEALQEQLQRLLLVNAELRHKLAAMQTQLRAAQDRERERQQPGEAATPQAKERARGQAGRPGHQHGQEPEWATAGAGAPGNPEDPAEAAQQLGRPSEAGQCRFSREEFEQILQERNELKAKVFLLKEELAYFQRELLTDHRVPGLLLEAMKVAVRKQRKKIKAKMLGTPEEAESSEDEAGPWILLSDDKGDHPPPPESKIQSFFGLWYRGKAESSEDETSSPAPSKLGGEEEAQPQSPAPDPPCSALHEHLCLGASAAPEA
In the case of B1, the “fold increase of BRET50 in CLN5KO cells against wild-type HeLa cells” value came out at 3 fold.

B2: GFP10-CLN3 (natural protein, UniProt Q13286 1-438, looked up)
chain: MGGCAGSRRRFSDSEGEETVPEPRLPLLDHQGAHWKNAVGFWLLGLCNNFSYVVMLSAAHDILSHKRTSGNQSHVDPGPTPIPHNSSSRFDCNSVSTAAVLLADILPTLVIKLLAPLGLHLLPYSPRVLVSGICAAGSFVLVAFSHSVGTSLCGVVFASISSGLGEVTFLSLTAFYPRAVISWWSSGTGGAGLLGALSYLGLTQAGLSPQQTLLSMLGIPALLLASYFLLLTSPEAQDPGGEEEAESAARQPLIRTEAPESKPGSSSSLSLRERWTVFKGLLWYIVPLVVVYFAEYFINQGLFELLFFWNTSLSHAQQYRWYQMLYQAGVFASRSSLRCCRIRFTWALALLQCLNLVFLLADVWFGFLPSIYLVFLIILYEGLLGGAAYVNTFHNIALETSDEHREFAMAATCISDTLGISLSGLLALPLHDFLCQLS
Take B2: the “fold increase of BRET50 in CLN5KO cells against wild-type HeLa cells” value was 2.85 fold.
